Laboratory results taken from paper PMC12830604.

Target: Gαq construct with N-terminal fusion of LgBiT (UniProt P50148)
Assay: NanoBiT Gαq-recruitment assay (concentration-response to LTC4)
Conditions: read at log[LTC4, (M)] = -6, the highest concentration; n = 3, mean ± s.e.m.; parent: est. 97; read off a plot; scale: normalized Gq response

response	Substance
0	CysLT2R with C-terminal SmBiT (wild type, NanoBiT Gαq-recruitment assay) (from UniProt Q9NS75) R136A
57	CysLT2R with C-terminal SmBiT (wild type, NanoBiT Gαq-recruitment assay) (from UniProt Q9NS75) S241A
